In the supplement of paper PMC10567573 one finds protein stability index data, which are given here for 94 variants.

To fix the notation:
B1: ESRRG (parent)
chain: YSCPATNECEITKRRRKSCQACRF
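Note: lentivirally expressed fusions sorted by FACS into six bins by GFP to DsRed ratio, PSI derived from sequencing read proportions per bin multiplied by bin number.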

In this series the parent is B1. Kind of series: protein stability index of a GFP-peptide fusion (GPS, HEK-293T) (PSI 1-6); higher = more stable. Particulars: c terminus: a fixed tail appended.
Consider YSCPATNECEITKRRTKSCQACRF [R16T], for which the protein stability index amounted to 3.96. On to YSCPATNECEITKRRRSSCQACRF [K17S], for which the protein stability index was 3. With YSCPATNECEITKRRRHSCQACRF [K17H] the figure was 3.82. With YSCPATNECEITKRRRFSCQACRF [K17F], the protein stability index was 2.69. With YSCPATNECEITKRRRPSCQACRF [K17P] the figure was 2.9; with YSCPATNECEITKRRRLSCQACRF [K17L], 3.06; with YSCPATNECEITKRRRNSCQACRF [K17N], 3.25.

YSCPATNECEITKRRRTSCQACRF [K17T]: the protein stability index stood at 2.92. For YSCPATNECEITKRRRYSCQACRF [K17Y] the value was 2.35; for YSCPATNECEITKRRRESCQACRF [K17E], 3.63. Turning to YSCPATNECEITKRRRRSCQACRF [K17R], the protein stability index turned out to be 3.31. For YSCPATNECEITKRRRCSCQACRF [K17C], the protein stability index worked out at 4.5. With YSCPATNECEITKRRRMSCQACRF [K17M] the figure was 3.06.

As for YSCPATNECEITKRRRQSCQACRF [K17Q], the protein stability index amounted to 3.29. With YSCPATNECEITKRRRWSCQACRF [K17W] the figure was 2.83. In the case of YSCPATNECEITKRRRASCQACRF [K17A], the protein stability index came to 3.17. For YSCPATNECEITKRRRISCQACRF [K17I] the value was 3.51. With YSCPATNECEITKRRRVSCQACRF [K17V] the figure was 2.97; with YSCPATNECEITKRRRDSCQACRF [K17D], 3.37. With YSCPATNECEITKRRRGSCQACRF [K17G] the figure was 3.51; with YSCPATNECEITKQRRKSCQACRF [R14Q], 3.48; with YSCPATNECEITKLRRKSCQACRF [R14L], 2.81. On to YSCPATNECEITKVRRKSCQACRF [R14V], for which the protein stability index was determined as 3.03.

YSCPATNECEITKFRRKSCQACRF [R14F]: the protein stability index is 3.19. With YSCPATNECEITKKRRKSCQACRF [R14K] the figure was 3.52. For YSCPATNECEITKMRRKSCQACRF [R14M], the protein stability index turned out to be 3.09. For YSCPATNECEITKTRRKSCQACRF [R14T] the value was 3.42. In the case of YSCPATNECEITKYRRKSCQACRF [R14Y], the protein stability index stood at 3.17. As for YSCPATNECEITKIRRKSCQACRF [R14I], the protein stability index amounted to 3.03. On to YSCPATNECEITKSRRKSCQACRF [R14S], for which the protein stability index was 3.6.

As to YSCPATNECEITKHRRKSCQACRF [R14H], the protein stability index is 4.23. For YSCPATNECEITKPRRKSCQACRF [R14P] the value was 3.13; for YSCPATNECEITKGRRKSCQACRF [R14G], 3.7.

YSCPATNECEITKWRRKSCQACRF [R14W]: the protein stability index was determined as 3.11. As for YSCPATNECEITKERRKSCQACRF [R14E], the protein stability index stood at 3.62. For YSCPATNECEITKNRRKSCQACRF [R14N] the value was 3.63; for YSCPATNECEITKRRRKSCWACRF [Q20W], 2.21; for YSCPATNECEITKRRRKSCYACRF [Q20Y], 2.81.

Take YSCPATNECEITKRRRKSCTACRF [Q20T]: the protein stability index came out at 2.93. As for YSCPATNECEITKRRRKSCNACRF [Q20N], the protein stability index was determined as 3.52. For YSCPATNECEITKRRRKSCGACRF [Q20G] the value was 3.53; for YSCPATNECEITKRRRKSCSACRF [Q20S], 3.02; for YSCPATNECEITKRRRKSCIACRF [Q20I], 2.2. On to YSCPATNECEITKRRRKSCCACRF [Q20C], for which the protein stability index came to 2.67. For the variant YSCPATNECEITKRRRKSCRACRF [Q20R], the protein stability index worked out at 3.49.

For YSCPATNECEITKRRRKSCHACRF [Q20H], the protein stability index is 2.67.

YSCPATNECEITKRRRKSCKACRF [Q20K]: the protein stability index is 3.92.

For the variant YSCPATNECEITKRRRKSCMACRF [Q20M], the protein stability index came to 2.86. For YSCPATNECEITKRRRKSCLACRF [Q20L] the value was 2.53. For YSCPATNECEITKRRRKSCFACRF [Q20F] the value was 1.91.

YSCPATNECEITKRRRKSCAACRF [Q20A]: the protein stability index came out at 3.52. Regarding YSCPATNECEITKRRRKSCVACRF [Q20V], the protein stability index amounted to 2.78. YSCPATNECEITKRRRKSCEACRF [Q20E]: the protein stability index is 3.62. For the variant YSCPATNECEITKRRRKSCDACRF [Q20D], the protein stability index amounted to 3.7.

Turning to YSCPATNECEITKRRRKSCPACRF [Q20P], the protein stability index was 3.39.

Take YSCPATNECEITKRARKSCQACRF [R15A]: the protein stability index came out at 3.33.

For the variant YSCPATNECEITKRQRKSCQACRF [R15Q], the protein stability index is 3.38. For YSCPATNECEITKRKRKSCQACRF [R15K] the value was 2.91; for YSCPATNECEITKRTRKSCQACRF [R15T], 3.22. For YSCPATNECEITKRSRKSCQACRF [R15S] the value was 3.48. With YSCPATNECEITKRDRKSCQACRF [R15D] the figure was 4.01; with YSCPATNECEITKRCRKSCQACRF [R15C], 3.46; with YSCPATNECEITKRERKSCQACRF [R15E], 3.37.

Regarding YSCPATNECEITKRNRKSCQACRF [R15N], the protein stability index was 3.62. For YSCPATNECEITKRIRKSCQACRF [R15I], the protein stability index came to 3.32. For YSCPATNECEITKRWRKSCQACRF [R15W], the protein stability index turned out to be 2.81. For the variant YSCPATNECEITKRFRKSCQACRF [R15F], the protein stability index turned out to be 2.96.

As for YSCPATNECEITKRVRKSCQACRF [R15V], the protein stability index stood at 3.22. YSCPATNECEITKRMRKSCQACRF [R15M]: the protein stability index worked out at 2.96.

Turning to YSCPATNECEITKRYRKSCQACRF [R15Y], the protein stability index came out at 3.34. As to YSCPATNECEITKRLRKSCQACRF [R15L], the protein stability index was 2.79. With YSCPATNECEITKRPRKSCQACRF [R15P] the figure was 3.28. As to YSCPATNECEITKRGRKSCQACRF [R15G], the protein stability index is 3.91. With YSCPATNECEITKRHRKSCQACRF [R15H] the figure was 4.16; with YSCPATNECEITKRRRKSCQACMF [R23M], 3.04; with YSCPATNECEITKRRRKSCQACFF [R23F], 2.33. With YSCPATNECEITKRRRKSCQACVF [R23V], the protein stability index stood at 2.46.

For the variant YSCPATNECEITKRRRKSCQACKF [R23K], the protein stability index stood at 3.33. For YSCPATNECEITKRRRKSCQACLF [R23L], the protein stability index was determined as 2.73. For YSCPATNECEITKRRRKSCQACSF [R23S] the value was 3.22; for YSCPATNECEITKRRRKSCQACTF [R23T], 3.01; for YSCPATNECEITKRRRKSCQACQF [R23Q], 3.69. For YSCPATNECEITKRRRKSCQACWF [R23W], the protein stability index came to 2.09.

On to YSCPATNECEITKRRRKSCQACDF [R23D], for which the protein stability index stood at 3.88.

Regarding YSCPATNECEITKRRRKSCQACAF [R23A], the protein stability index came to 3.1. Turning to YSCPATNECEITKRRRKSCQACEF [R23E], the protein stability index worked out at 4.02.

For YSCPATNECEITKRRRKSCQACIF [R23I], the protein stability index came to 2.59. Take YSCPATNECEITKRRRKSCQACHF [R23H]: the protein stability index was 2.96. YSCPATNECEITKRRRKSCQACYF [R23Y]: the protein stability index was found to be 3.3. With YSCPATNECEITKRRRKSCQACGF [R23G] the figure was 3.79; with YSCPATNECEITKRRRKSCQACNF [R23N], 3.92; with YSCPATNECEITKRRRKSCQACPF [R23P], 3.7.

For the variant YSCPATNECEITKRRRKSCQACCF [R23C], the protein stability index stood at 3.71. For YSCPATNECEITKRRRKSCQACRA [F24A], the protein stability index is 4.
